Laboratory results from publication PMC12412785.
Each block holds one substance with its values, some of them ahead of it.

How the values were obtained:
[1] = biological target: PpRAD51-2, purified recombinant (P. patens)
[2] = biological target: 6His-PpBRCA2-Cter (amino acids 251–391) (P. patens); assay: BLI; 6His-PpBRCA2-Cter immobilised on Ni-NTA biosensors, PpRAD51-2 in solution (1.88–30 nM); buffer A with 0.1% Tween-20; 25°C
[3] = biological target: biotinylated PpBRCA2-BRC1 peptide (P. patens); assay: BLI; biotinylated BRC peptides (0.5 μM) immobilised on streptavidin biosensors, PpRAD51-2 in solution in two-fold serial dilutions; 25°C; buffer A (25 mM Tris pH 7.5, 100 mM Na2SO4, 5 mM β-mercaptoethanol) with 0.05% Tween-20; Kd in steady-state mode
[4] = biological target: biotinylated PpBRCA2-BRC2 peptide (P. patens); assay: as above
[5] = biological target: biotinylated PpBRCA2-BRC4 peptide (P. patens); assay: as above
[6] = tested on: PpBRCA2-NterT138 (Physcomitrium patens); assay: BLI; settings: text cites Fig. 7B; Kd in Fig. 7C not in text; EMSA: 10 mM Tris-HCl pH 7.5, 50 mM NaCl, 5 mM MgCl2, 2 mM ATP, 1 mM DTT, 37 C, 7 min (RAD51/DMC1 15 min), 0.01% glutaraldehyde; BLI: 25 mM Tris pH 7.5, 100 mM …

- concentration needed for complete inhibition of PpRAD51-ssDNA filament formation (EMSA; 1 μM RAD51-2, 3 μM 100 nt ssDNA, 0–4 μM PpBRCA2-Cter) [1]: 2 µM
Substance: 6His-PpBRCA2-Cter (amino acids 251–391) (domain or fragment)

- Kd [2]: 4.3 nM
- Kd [3]: 400 nM
- Kd [4]: 800 nM
- Kd [5]: 400 nM
Substance: PpRAD51-2, purified recombinant (natural protein)

Substance: 100 nt ssDNA (BLI)
- fold decrease in affinity relative to PpBRCA2-Nter (fold weaker affinity than PpBRCA2-Nter) [6]: 50

- concentration needed for complete inhibition of PpRAD51-ssDNA filament formation (EMSA; 1 μM RAD51-2, 3 μM 100 nt ssDNA, 0–4 μM PpBRCA2-BRC4) [1]: > 4 µM
Substance: biotinylated PpBRCA2-BRC4 peptide
